Data set [1] concerns the molecule itself. Kind of data set: crystal structure; Δ13 crystals grown at 20°C, HEPES pH 6.9, sodium formate, PEG 3,350, soaked in 50 mM BaCl2; space group H3; desensitized state; anomalous diffraction.
Data set [2] deals with the molecule itself. Put plainly: crystal structure; Δ25 crystals grown at high pH (Tris pH 8.5) with BaCl2, soaked in 50 mM BaCl2 or 150 mM NaBr; space group P212121; resting state; anomalous diffraction.

B1: chicken ASIC1a Δ13 crystallization construct (residues 14-463 of chicken ASIC1) (domain or fragment, UniProt Q1XA76 14-463, looked up)
chain: GQPVSIQAFASSSTLHGISHIFSYERLSLKRVVWALCFMGSLALLALVCTNRIQYYFLYPHVTKLDEVAATRLTFPAVTFCNLNEFRFSRVTKNDLYHAGELLALLNNRYEIPDTQTADEKQLEILQDKANFRNFKPKPFNMLEFYDRAGHDIREMLLSCFFRGEQCSPEDFKVVFTRYGKCYTFNAGQDGKPRLITMKGGTGNGLEIMLDIQQDEYLPVWGETDETSFEAGIKVQIHSQDEPPLIDQLGFGVAPGFQTFVSCQEQRLIYLPPPWGDCKATTGDSEFYDTYSITACRIDCETRYLVENCNCRMVHMPGDAPYCTPEQYKECADPALDFLVEKDNEYCVCEMPCNVTRYGKELSMVKIPSKASAKYLAKKYNKSEQYIGENILVLDIFFEALNYETIEQKKAYEVAGLLGDIGGQMGLFIGASILTVLELFDYAYEVIKHR
notes: chicken ASIC1 (acid sensing ion channel 1a), residues 14-463; 13 residues removed from the amino-terminus and 64 from the carboxy-terminus; Homotrimeric channel; crystals in space group H3; also called desensitized channel; cASIC1a
On to B1, for which, in data set [1], the binding result is on record as “binds”.

B2: chicken ASIC1a Δ25 crystallization construct (residues 25-463 of chicken ASIC1) (domain or fragment, UniProt Q1XA76 25-463, looked up)
chain: SSTLHGISHIFSYERLSLKRVVWALCFMGSLALLALVCTNRIQYYFLYPHVTKLDEVAATRLTFPAVTFCNLNEFRFSRVTKNDLYHAGELLALLNNRYEIPDTQTADEKQLEILQDKANFRNFKPKPFNMLEFYDRAGHDIREMLLSCFFRGEQCSPEDFKVVFTRYGKCYTFNAGQDGKPRLITMKGGTGNGLEIMLDIQQDEYLPVWGETDETSFEAGIKVQIHSQDEPPLIDQLGFGVAPGFQTFVSCQEQRLIYLPPPWGDCKATTGDSEFYDTYSITACRIDCETRYLVENCNCRMVHMPGDAPYCTPEQYKECADPALDFLVEKDNEYCVCEMPCNVTRYGKELSMVKIPSKASAKYLAKKYNKSEQYIGENILVLDIFFEALNYETIEQKKAYEVAGLLGDIGGQMGLFIGASILTVLELFDYAYEVIKHR
notes: chicken ASIC1 (acid sensing ion channel 1a), residues 25-463; 24 residues removed from the amino-terminus and 64 from the carboxy-terminus; Homotrimeric channel; three subunits around a molecular 3-fold axis in the P212121 crystals; also called resting channel; cASIC1a
As to B2, the binding result in data set [2] is listed as “binds”.
